According to patent US20200109194A1 (BLUEFIN BIOMEDICINE, published 2020):

T1: human TMEFF1 extracellular domain recombinant protein (plasmid BBP377, S40-V330, C-terminal 8xHis) (human, UniProt Q8IYR6 40-330)
T1 construct: Secreted from CHO cells with a non-native signal peptide (not part of the mature protein); also called hTMEFF1 ECD; hTMEFF1-ECD
T1 sequence: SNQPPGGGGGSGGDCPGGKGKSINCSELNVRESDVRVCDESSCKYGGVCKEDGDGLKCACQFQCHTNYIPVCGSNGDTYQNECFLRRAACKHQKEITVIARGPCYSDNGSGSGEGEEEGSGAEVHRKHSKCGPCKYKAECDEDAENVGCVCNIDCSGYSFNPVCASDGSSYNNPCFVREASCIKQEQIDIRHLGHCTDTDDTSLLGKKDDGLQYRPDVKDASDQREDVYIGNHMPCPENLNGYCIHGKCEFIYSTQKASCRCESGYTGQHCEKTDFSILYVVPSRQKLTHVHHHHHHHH

T2: endogenous human TMEFF1 on cancer cell lines (H69, HCC1187, PA-1, H526, H1048) (human, UniProt Q8IYR6 40-380)
T2 sequence: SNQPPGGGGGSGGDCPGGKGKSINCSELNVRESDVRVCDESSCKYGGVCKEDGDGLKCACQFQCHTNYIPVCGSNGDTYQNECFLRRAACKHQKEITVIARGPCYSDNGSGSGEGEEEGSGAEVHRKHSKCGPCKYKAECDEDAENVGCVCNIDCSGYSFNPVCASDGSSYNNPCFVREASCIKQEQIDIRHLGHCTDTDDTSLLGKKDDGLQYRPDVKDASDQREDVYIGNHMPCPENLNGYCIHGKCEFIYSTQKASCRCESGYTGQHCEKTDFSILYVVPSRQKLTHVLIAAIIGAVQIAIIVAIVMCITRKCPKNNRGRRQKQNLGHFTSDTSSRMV

B1: 36H6 (antibody, human IgG1, V domains shown)
VH: QVQLVESGGGVVQPGRSLRLSCAASGFTFSDYGMHWVRQAPGKGLEWVAVIWYEGGNKYYTDSVKGRFTISRDNSKNTLYLQMNSLRAEDTAVYYCARILLWFGESYGMDVWGQGTTVTVSS
VL: DIQMTQSPSSLSASVGDRVTITCRASQGISNYLAWYQQKPGKVPKLLIYAASTLQSGVPSRFSGSGSGTDFTLTISSLQPEDVATYYCQKYNNAPWTFGQGTKVEIK
B2: 30C10-PBD (antibody, human IgG1, V domains shown)
VH: QVQLVESGGGVVQPGRSLRLSCAASGFTFSSYGMHWVRQAPGKGLEWVAVIWYDGSDKYYADSVKGRFTISRDNSKKTLYLQMNSLRAEDTAVYFCARETIFRGLTITFFDHWGQGTLVTVSS
VL: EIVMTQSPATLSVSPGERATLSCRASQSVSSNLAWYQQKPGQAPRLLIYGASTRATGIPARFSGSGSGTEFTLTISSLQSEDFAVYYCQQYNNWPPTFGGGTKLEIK
modifications: MA-PEG8-VA-PAB-SG3199 (PBD) on TCEP-reduced hinge region thiols, sites not stated; DAR 1.7
B3: M1F1 (antibody, human IgG1, V domains shown)
VH: QVQLQESGPGLVKPSETLSLTCAVSGYSISSGYFWGWIRQPPGKKLEWIGSIYHSGSTYYNPSLKSRVTMSVDTSKNQFSLKLSSVTAADTAVYYCAREGDCSGGICYWYFDLWGRGTLVTVSS
VL: EIVMTQSPATLSVSPGERATLSCRASQSVSSNLAWYQQKPGQAPRLLIYGASTRATGIPARFSGSGSGTEVTLTISSLQSEDFAVYYCQQYNKWPLTFGGGTKVEIK

Assays:
[1] = biological target: T3, Macaca fascicularis TMEFF1 extracellular domain recombinant protein (plasmid BBP480, S40-V330, C-terminal … (Macaca fascicularis)); test: BLI (Octet Red), antibody on Protein A biosensor, recombinant cyTMEFF1 ECD as analyte
T3 construct: range 40-330; also called cyTMEFF1 ECD; monkey TMEFF1 ectodomain
Experimental: (§1) The affinity of antibodies to various recombinant TMEFF1 protein was determined on an Octet Red™ instrument. After loading reagents into a 96-well plate, the Octet Red™ with Protein A-conjugated biosensors was programmed as follows: 30 seconds for baseline #1; 120 seconds to immobilize the antibody; 30 seconds for baseline #2; 300 seconds for association of antibody to recombinant TMEFF1; and 300-600 seconds for dissociation of recombinant TMEFF1 from the antibody.
Affinity of 7 antibodies was calculated using cyTMEFF1 ECD recombinant protein by Octet™.

[2] = biological target: T1, human TMEFF1 extracellular domain …; test: BLI (Octet Red), antibody on Protein A biosensor, recombinant hTMEFF1 ECD as analyte
Experimental: as §1
Affinity of thirteen antibodies was calculated using hTMEFF1 ECD recombinant protein by Octet™.

[3] = biological target: T2, endogenous human TMEFF1 on cancer cell …; test: cell-based or functional assay

Binder | Kd [1] | Kd [2] | IC50 of growth of H526 cells (CellTiter Glo, 5 days) [3] | IC50 of growth of H1048 cells (CellTiter Glo, 5 days) [3]
B1 | 96 nM | 51 nM | – | –
B2 | – | – | 4.27 ng/mL | 0.53 ng/mL
B3 | 27 nM | 19 nM | – | –
